T1: cynomolgus NKG2D-Fc fusion protein (cynomolgus; human, UniProt P61252 73-216)
T1 construct: extracellular domain; also called cynomolgus recombinant NKG2D-Fc; cynomolgus recombinant NKG2D; not shown: human IgG1 Fc domain
T1 sequence (looked up): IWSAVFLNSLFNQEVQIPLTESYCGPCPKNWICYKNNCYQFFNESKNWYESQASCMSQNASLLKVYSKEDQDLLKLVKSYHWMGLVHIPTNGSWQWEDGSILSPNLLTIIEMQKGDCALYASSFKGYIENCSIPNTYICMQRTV

T2: human NKG2D-Fc fusion protein (human, UniProt P26718 73-216)
T2 construct: extracellular domain; also called recombinant human NKG2D-Fc; human recombinant NKG2D; not shown: human IgG1 Fc domain
T2 sequence (looked up): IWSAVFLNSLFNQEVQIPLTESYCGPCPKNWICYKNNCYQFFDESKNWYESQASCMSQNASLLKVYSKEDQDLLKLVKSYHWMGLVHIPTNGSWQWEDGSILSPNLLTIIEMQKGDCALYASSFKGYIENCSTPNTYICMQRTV

T3: mouse NKG2D-Fc fusion protein (mouse; human, UniProt O54709 90-232)
T3 construct: extracellular domain; also called mouse recombinant NKG2D-Fc; recombinant mouse NKG2D-Fc; not shown: human IgG1 Fc domain
T3 sequence (looked up): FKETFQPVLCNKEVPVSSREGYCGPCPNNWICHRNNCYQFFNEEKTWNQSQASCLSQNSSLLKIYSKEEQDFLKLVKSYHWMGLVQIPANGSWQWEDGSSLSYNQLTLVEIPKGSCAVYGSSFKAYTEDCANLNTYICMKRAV


Tests used:
Assay in all cases: ELISA on coated NKG2D-Fc
[1] = target: T1, cynomolgus NKG2D-Fc fusion protein
[2] = target: T2, human NKG2D-Fc fusion protein
[3] = target: T3, mouse NKG2D-Fc fusion protein

binding result [1] | binding result [2] | binding result [3] | Binder
binds | binds | binds | ADI-27740 (antibody, V domains shown, also called A40) VH: QVQLQQWGAGLLKPSETLSLTCAVYGGSFSGYYWSWIRQPPGKGLEWIGEIDHSGSTNYNPSLKSRVTISVDTSKNQFSLKLSSVTAADTAVYYCARARGPWSFDPWGQGTLVTVSS VL: DIQMTQSPSTLSASVGDRVTITCRASQSIGSWLAWYQQKPGKAPKLLIYKASSLESGVPSRFSGSGSGTEFTLTISSLQPDDFATYYCQQYHSFYTFGGGTKVEIK
binds | binds | binds | ADI-29419 (antibody, V domains shown) VH: QVQLQQWGAGLLKPSETLSLTCAVYGGSFSGYYWSWIRQPPGKGLEWIGEIDHSGSTNYNPSLKSRVTISVDTSKNQFSLKLSSVTAADTAVYYCARARGPWSFDPWGQGTLVTVSS VL: not shown
binds | binds | binds | ADI-29426 (antibody, V domains shown) VH: QVQLQQWGAGLLKPSETLSLTCAVYGGSFSGYYWSWIRQPPGKGLEWIGEIDHSGSTNYNPSLKSRVTISVDTSKNQFSLKLSSVTAADTAVYYCARARGPWSFDPWGQGTLVTVSS VL: DIQMTQSPSTLSASVGDRVTITCRASQSIGSWLAWYQQKPGKAPKLLIYKASSLESGVPSRFSGSGSGTEFTLTISSLQPDDFATYYCQQYHSFPTFGGGTKVEIK
binds | binds | binds | ADI-29421 (antibody, V domains shown) VH: QVQLQQWGAGLLKPSETLSLTCAVYGGSFSGYYWSWIRQPPGKGLEWIGEIDHSGSTNYNPSLKSRVTISVDTSKNQFSLKLSSVTAADTAVYYCARARGPWSFDPWGQGTLVTVSS VL: not shown
binds | binds | binds | ADI-29407 (antibody, V domains shown) VH: QVQLQQWGAGLLKPSETLSLTCAVYGGSFSGYYWSWIRQPPGKGLEWIGEIDHSGSTNYNPSLKSRVTISVDTSKNQFSLKLSSVTAADTAVYYCARARGPWSFDPWGQGTLVTVSS VL: DIQMTQSPSTLSASVGDRVTITCRASQSISSWLAWYQQKPGKAPKLLIYKASSLESGVPSRFSGSGSGTEFTLTISSLQPDDFATYYCQQYQSFPTFGGGTKVEIK
binds | binds | binds | ADI-29424 (antibody, V domains shown) VH: QVQLQQWGAGLLKPSETLSLTCAVYGGSFSGYYWSWIRQPPGKGLEWIGEIDHSGSTNYNPSLKSRVTISVDTSKNQFSLKLSSVTAADTAVYYCARARGPWSFDPWGQGTLVTVSS VL: DIQMTQSPSTLSASVGDRVTITCRASQSISSWLAWYQQKPGKAPKLLIYKASSLESGVPSRFSGSGSGTEFTLTISSLQPDDFATYYCQQYDSFITFGGGTKVEIK
binds | binds | binds | ADI-29404 (antibody, V domains shown, also called F04) VH: QVQLQQWGAGLLKPSETLSLTCAVYGGSFSGYYWSWIRQPPGKGLEWIGEIDHSGSTNYNPSLKSRVTISVDTSKNQFSLKLSSVTAADTAVYYCARARGPWSFDPWGQGTLVTVSS VL: DIQMTQSPSTLSASVGDRVTITCRASQSISSWLAWYQQKPGKAPKLLIYKASSLESGVPSRFSGSGSGTEFTLTISSLQPDDFATYYCEQYDSYPTFGGGTKVEIK
– | binds | binds | ADI-29443 (antibody, V domains shown, also called F43) VH: QLQLQESGPGLVKPSETLSLTCTVSGGSISSSSYYWGWIRQPPGKGLEWIGSIYYSGSTYYNPSLKSRVTISVDTSKNQFSLKLSSVTAADTAVYYCARGSDRFHPYFDYWGQGTLVTVSS VL: EIVLTQSPATLSLSPGERATLSCRASQSVSRYLAWYQQKPGQAPRLLIYDASNRATGIPARFSGSGSGTDFTLTISSLEPEDFAVYYCQQFDTWPPTFGGGTKVEIK
binds | binds | binds | ADI-27727 (antibody, V domains shown) VH: QVQLVQSGAEVKKPGSSVKVSCKASGGTFSSYAISWVRQAPGQGLEWMGGIIPIFGTANYAQKFQGRVTITADESTSTAYMELSSLRSEDTAVYYCARGDSSIRHAYYYYGMDVWGQGTTVTVSS VL: not shown

Second part, the binder before the results:

Binder | binding result [1] | binding result [2] | binding result [3]
ADI-27705 (antibody, V domains shown) VH: QVQLQQWGAGLLKPSETLSLTCAVYGGSFSGYYWSWIRQPPGKGLEWIGEIDHSGSTNYNPSLKSRVTISVDTSKNQFSLKLSSVTAADTAVYYCARARGPWSFDPWGQGTLVTVSS VL: not shown | binds | binds | binds
ADI-29403 (antibody, V domains shown) VH: QVQLQQWGAGLLKPSETLSLTCAVYGGSFSGYYWSWIRQPPGKGLEWIGEIDHSGSTNYNPSLKSRVTISVDTSKNQFSLKLSSVTAADTAVYYCARARGPWSFDPWGQGTLVTVSS VL: not shown | binds | binds | binds
ADI-27741 (antibody, V domains shown) VH: QVQLQQWGAGLLKPSETLSLTCAVYGGSFSGYYWSWIRQPPGKGLEWIGEIDHSGSTNYNPSLKSRVTISVDTSKNQFSLKLSSVTAADTAVYYCARARGPWSFDPWGQGTLVTVSS VL: DIQMTQSPSTLSASVGDRVTITCRASQSIGSWLAWYQQKPGKAPKLLIYKASSLESGVPSRFSGSGSGTEFTLTISSLQPDDFATYYCQQSNSYYTFGGGTKVEIK | binds | binds | binds
ADI-28226 (antibody, V domains shown, also called C26) VH: QVQLQQWGAGLLKPSETLSLTCAVYGGSFSGYYWSWIRQPPGKGLEWIGEIDHSGSTNYNPSLKSRVTISVDTSKNQFSLKLSSVTAADTAVYYCARARGPWSFDPWGQGTLVTVSS VL: DIQMTQSPSTLSASVGDRVTITCRASQSISSWLAWYQQKPGKAPKLLIYKASSLESGVPSRFSGSGSGTEFTLTISSLQPDDFATYYCQQYGSFPITFGGGTKVEIK | binds | binds | binds
ADI-29401 (antibody, V domains shown) VH: QVQLQQWGAGLLKPSETLSLTCAVYGGSFSGYYWSWIRQPPGKGLEWIGEIDHSGSTNYNPSLKSRVTISVDTSKNQFSLKLSSVTAADTAVYYCARARGPWSFDPWGQGTLVTVSS VL: DIQMTQSPSTLSASVGDRVTITCRASQSIGSWLAWYQQKPGKAPKLLIYKASSLESGVPSRFSGSGSGTEFTLTISSLQPDDFATYYCQQYDIYPTFGGGTKVEIK | binds | binds | binds
ADI-29399 (antibody, V domains shown) VH: QVQLQQWGAGLLKPSETLSLTCAVYGGSFSGYYWSWIRQPPGKGLEWIGEIDHSGSTNYNPSLKSRVTISVDTSKNQFSLKLSSVTAADTAVYYCARARGPWSFDPWGQGTLVTVSS VL: not shown | binds | binds | binds
ADI-29425 (antibody, V domains shown) VH: QVQLQQWGAGLLKPSETLSLTCAVYGGSFSGYYWSWIRQPPGKGLEWIGEIDHSGSTNYNPSLKSRVTISVDTSKNQFSLKLSSVTAADTAVYYCARARGPWSFDPWGQGTLVTVSS VL: not shown | binds | binds | binds
ADI-29405 (antibody, V domains shown) VH: QVQLQQWGAGLLKPSETLSLTCAVYGGSFSGYYWSWIRQPPGKGLEWIGEIDHSGSTNYNPSLKSRVTISVDTSKNQFSLKLSSVTAADTAVYYCARARGPWSFDPWGQGTLVTVSS VL: DIQMTQSPSTLSASVGDRVTITCRASQSISSWLAWYQQKPGKAPKLLIYKASSLESGVPSRFSGSGSGTEFTLTISSLQPDDFATYYCQQYGSFPTFGGGTKVEIK | binds | binds | binds
ADI-27743 (antibody, V domains shown) VH: QVQLQQWGAGLLKPSETLSLTCAVYGGSFSGYYWSWIRQPPGKGLEWIGEIDHSGSTNYNPSLKSRVTISVDTSKNQFSLKLSSVTAADTAVYYCARARGPWSFDPWGQGTLVTVSS VL: not shown | binds | binds | binds
ADI-29429 (antibody, V domains shown) VH: QVQLQQWGAGLLKPSETLSLTCAVYGGSFSGYYWSWIRQPPGKGLEWIGEIDHSGSTNYNPSLKSRVTISVDTSKNQFSLKLSSVTAADTAVYYCARARGPWSFDPWGQGTLVTVSS VL: DIQMTQSPSTLSASVGDRVTITCRASQSIGSWLAWYQQKPGKAPKLLIYKASSLESGVPSRFSGSGSGTEFTLTISSLQPDDFATYYCQQYELYSYTFGGGTKVEIK | binds | binds | binds

— US20210261668A1 (DRAGONFLY THERAPEUTICS, published 2021)
